Experimental data reported in US20100015637A1 (AbbVie / Abbott, published 2010).

How the values were obtained:
[1] = biological target: human PlGF-1 fragment (comprising amino acids 17-131) produced in human embryonic kidney cells (human) (UniProt P49763); assay: … sandwich, capture MAb04, detection pAb264; antigen 0 pg/mL (blank)
[2] = biological target: CHO human PlGF-1 fragment (comprising amino acids 17-131; ATCC PTA-8540) (human) (UniProt P49763); assay: as above
[3] = biological target: human PlGF-1 comprising amino acids 1-137 produced in human embryonic kidney cells (human) (UniProt P49763); assay: as above
[4] = biological target: CHO human PlGF-1 comprising amino acids 1-137 (human PlGF-1-His (1-131), CHO 6305) (human) (UniProt P49763); assay: as above
[5] = biological target: recombinant human PlGF-1 (comprising amino acids 1-131) expressed in E. coli (R&D Systems) (human) (UniProt P49763); assay: as above
[6] = biological target: human PlGF-1 fragment (comprising amino acids 17-131) produced in human embryonic kidney cells (human) (UniProt P49763); assay: … sandwich, capture MAb04, detection pAb264; antigen 15 pg/mL
[7] = biological target: CHO human PlGF-1 fragment (comprising amino acids 17-131; ATCC PTA-8540) (human) (UniProt P49763); assay: as above
[8] = biological target: human PlGF-1 comprising amino acids 1-137 produced in human embryonic kidney cells (human) (UniProt P49763); assay: as above
[9] = biological target: CHO human PlGF-1 comprising amino acids 1-137 (human PlGF-1-His (1-131), CHO 6305) (human) (UniProt P49763); assay: as above
[10] = biological target: recombinant human PlGF-1 (comprising amino acids 1-131) expressed in E. coli (R&D Systems) (human) (UniProt P49763); assay: as above
[11] = biological target: human PlGF-1 fragment (comprising amino acids 17-131) produced in human embryonic kidney cells (human) (UniProt P49763); assay: … sandwich, capture MAb04, detection pAb264; antigen 250 pg/mL
[12] = biological target: CHO human PlGF-1 fragment (comprising amino acids 17-131; ATCC PTA-8540) (human) (UniProt P49763); assay: as above
[13] = biological target: human PlGF-1 comprising amino acids 1-137 produced in human embryonic kidney cells (human) (UniProt P49763); assay: as above
[14] = biological target: CHO human PlGF-1 comprising amino acids 1-137 (human PlGF-1-His (1-131), CHO 6305) (human) (UniProt P49763); assay: as above
[15] = biological target: recombinant human PlGF-1 (comprising amino acids 1-131) expressed in E. coli (R&D Systems) (human) (UniProt P49763); assay: as above
[16] = biological target: human PlGF-1 fragment (comprising amino acids 17-131) produced in human embryonic kidney cells (human) (UniProt P49763); assay: … sandwich, capture MAb04, detection pAb264; antigen 750 pg/mL
[17] = biological target: CHO human PlGF-1 fragment (comprising amino acids 17-131; ATCC PTA-8540) (human) (UniProt P49763); assay: as above
[18] = biological target: human PlGF-1 comprising amino acids 1-137 produced in human embryonic kidney cells (human) (UniProt P49763); assay: as above
[19] = biological target: CHO human PlGF-1 comprising amino acids 1-137 (human PlGF-1-His (1-131), CHO 6305) (human) (UniProt P49763); assay: as above
[20] = biological target: recombinant human PlGF-1 (comprising amino acids 1-131) expressed in E. coli (R&D Systems) (human) (UniProt P49763); assay: as above
[21] = biological target: human PlGF-1 fragment (comprising amino acids 17-131) produced in human embryonic kidney cells (human) (UniProt P49763); assay: … sandwich, capture MAb04, detection pAb264; antigen 1500 pg/mL
[22] = biological target: CHO human PlGF-1 fragment (comprising amino acids 17-131; ATCC PTA-8540) (human) (UniProt P49763); assay: as above
[23] = biological target: human PlGF-1 comprising amino acids 1-137 produced in human embryonic kidney cells (human) (UniProt P49763); assay: as above
[24] = biological target: CHO human PlGF-1 comprising amino acids 1-137 (human PlGF-1-His (1-131), CHO 6305) (human) (UniProt P49763); assay: as above
[25] = biological target: recombinant human PlGF-1 (comprising amino acids 1-131) expressed in E. coli (R&D Systems) (human) (UniProt P49763); assay: as above
[26] = biological target: human PlGF-1 fragment (comprising amino acids 17-131) produced in human embryonic kidney cells (human) (UniProt P49763); assay: … sandwich, capture MAb04, detection pAb264; antigen 60 pg/mL
[27] = biological target: CHO human PlGF-1 fragment (comprising amino acids 17-131; ATCC PTA-8540) (human) (UniProt P49763); assay: as above
[28] = biological target: human PlGF-1 comprising amino acids 1-137 produced in human embryonic kidney cells (human) (UniProt P49763); assay: as above
[29] = biological target: CHO human PlGF-1 comprising amino acids 1-137 (human PlGF-1-His (1-131), CHO 6305) (human) (UniProt P49763); assay: as above
[30] = biological target: recombinant human PlGF-1 (comprising amino acids 1-131) expressed in E. coli (R&D Systems) (human) (UniProt P49763); assay: as above

Sequence of human PlGF-1 fragment (comprising amino acids 17-131) produced in human embryonic kidney cells (human) (P49763 other isoform, or with tags, fused parts or gaps limits assumed): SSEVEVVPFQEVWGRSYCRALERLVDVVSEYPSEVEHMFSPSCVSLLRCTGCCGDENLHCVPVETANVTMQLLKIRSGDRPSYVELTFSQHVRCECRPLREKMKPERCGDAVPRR
Sequence of CHO human PlGF-1 fragment (comprising amino acids 17-131; ATCC PTA-8540) (human) (P49763 other isoform, or with tags, fused parts or gaps limits assumed): as above
Sequence of human PlGF-1 comprising amino acids 1-137 produced in human embryonic kidney cells (human) (P49763 other isoform, or with tags, fused parts or gaps): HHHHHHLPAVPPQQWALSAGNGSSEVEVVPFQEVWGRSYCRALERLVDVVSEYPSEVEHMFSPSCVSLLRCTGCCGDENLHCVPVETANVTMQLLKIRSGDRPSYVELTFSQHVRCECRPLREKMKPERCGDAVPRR
Sequence of CHO human PlGF-1 comprising amino acids 1-137 (human PlGF-1-His (1-131), CHO 6305) (human) (P49763 other isoform, or with tags, fused parts or gaps): as above

## rat monoclonal antibody 04 (Rat anti-Human PlGF clone number 358932, R&D Systems)
[1]
  RLU: 18700 RLU
[2]
  RLU: 18900 RLU
[3]
  RLU: 18800 RLU
[4]
  RLU: 19100 RLU
[5]
  RLU: 19000 RLU
[6]
  RLU: 39500 RLU
[7]
  RLU: 34200 RLU
[8]
  RLU: 49700 RLU
[9]
  RLU: 32100 RLU
[10]
  RLU: 51900 RLU
[11]
  RLU: 382000 RLU
[12]
  RLU: 293000 RLU
[13]
  RLU: 539000 RLU
[14]
  RLU: 246000 RLU
[15]
  RLU: 570000 RLU
[16]
  RLU: 957000 RLU
[17]
  RLU: 752000 RLU
[18]
  RLU: 1.26e+06 RLU
[19]
  RLU: 644000 RLU
[20]
  RLU: 1.36e+06 RLU
[21]
  RLU: 1.64e+06 RLU
[22]
  RLU: 1.3e+06 RLU
[23]
  RLU: 2.05e+06 RLU
[24]
  RLU: 1.13e+06 RLU
[25]
  RLU: 2.19e+06 RLU
[26]
  RLU: 112000 RLU
[27]
  RLU: 89500 RLU
[28]
  RLU: 159000 RLU
[29]
  RLU: 80100 RLU
[30]
  RLU: 169000 RLU
